Measurements: US20180312565A1 (Affibody, published 2018)

Experiments:
[1] = target: T1, PD-L1 on PD-L1 expressing cells (IFNg-stimulated THP-1 cells; MDA-MB-231 cells) (UniProt Q9NZQ7 19-290, limits assumed); assay: FACS, MDA-MB-231 cells, 0.625 µg/ml; negative control (buffer) 69
T1 construct: whole, on cells
Procedure: Cells incubated with buffer alone were used as negative controls. The cells were incubated for 1 h at 8° C. in the dark, washed twice with 100 μl staining buffer, and resuspended in 100 μl of staining buffer containing 2.5 μg/ml of a goat-anti-human IgG-Alexa488 (Molecular Probes, cat. no. A11013) or, for cells stained with the positive control antibody, goat anti-mouse IgG-Alexa647 antibody (Life Technologies, cat. No. A21236). The cells were incubated for 1 h at 8° C. in the dark, washed twice with 100 μl staining buffer and resuspended in 300 μl of staining buffer. Data from 10,000 cells were obtained using a FACS Calibur ([…]) and the data was analyzed using Flowing software 2.5.0 (Turku University). Mean fluorescence intensity (MFI) was used as a read out of binding capacity.

[2] = target: T2, human PD-L1 Fc Chimera (R&D Systems, cat. no. 156-B7-100) (human, UniProt Q9NZQ7 19-239, biotinylated with Sulfo-NHS-LC-Biotin in ELISA and AlphaLISA; not biotinylated in SPR); assay: SPR capture assay, control
T2 construct: bought; also called hPD-L1; biotinylated hPD-L1; not shown: Fc part of the bought Fc chimera, not described
T2 sequence (Q9NZQ7 19-239, change not shown): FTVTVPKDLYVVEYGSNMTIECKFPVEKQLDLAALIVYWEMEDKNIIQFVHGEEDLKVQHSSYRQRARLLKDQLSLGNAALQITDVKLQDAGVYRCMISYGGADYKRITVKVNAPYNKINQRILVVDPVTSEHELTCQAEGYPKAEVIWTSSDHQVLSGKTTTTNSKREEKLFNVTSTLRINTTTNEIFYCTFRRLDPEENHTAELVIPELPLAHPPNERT

T1 sequence (Q9NZQ7 19-290 limits assumed): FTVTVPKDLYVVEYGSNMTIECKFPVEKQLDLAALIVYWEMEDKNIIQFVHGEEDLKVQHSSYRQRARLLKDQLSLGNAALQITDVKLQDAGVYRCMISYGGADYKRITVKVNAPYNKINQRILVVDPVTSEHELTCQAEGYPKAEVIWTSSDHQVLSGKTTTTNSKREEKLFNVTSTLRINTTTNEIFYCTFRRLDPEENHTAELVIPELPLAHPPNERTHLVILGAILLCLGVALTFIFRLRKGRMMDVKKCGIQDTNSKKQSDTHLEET

Binder | MFI [1] | binding result [2]
Z15170-HCLam (bispecific antibody) heavy: not shown light: EIVLTQSPATLSLSPGERATLSCRASKGVSTSGYSYLHWYQQKPGQAPRLLIYLASYLESGVPARFSGSGSGTDFTLTISSLEPEDFAVYYCQHSRDLPLTFGGGTKVEIKRTVAAPSVFIFPPSDEQLKSGTASVVCLLNNFYPREAKVQWKVDNALQSGNSQESVTEQDSKDSTYSLSSTLTLSKADYEKHKVYACEVTHQGLSSPVTKSFNRGEC | 161 | –
HCLam-Z15170 (bispecific antibody) heavy: not shown light: EIVLTQSPATLSLSPGERATLSCRASKGVSTSGYSYLHWYQQKPGQAPRLLIYLASYLESGVPARFSGSGSGTDFTLTISSLEPEDFAVYYCQHSRDLPLTFGGGTKVEIKRTVAAPSVFIFPPSDEQLKSGTASVVCLLNNFYPREAKVQWKVDNALQSGNSQESVTEQDSKDSTYSLSSTLTLSKADYEKHKVYACEVTHQGLSSPVTKSFNRGEC | 274 | –

More lines, now with the values ahead:

MFI [1] | binding result [2] | Binder
64 | – | ipilimumab (Yervoy, Bristol-Myers Squibb) (antibody, V domains shown) VH: QVQLVESGGGVVQPGRSLRLSCAASGFTFSSYTMHWVRQAPGKGLEWVTFISYDGNNKYYADSVKGRFTISRDNSKNTLYLQMNSLRAEDTAIYYCARTGWLGPFDYWGQGTLVTVSS VL: not shown
– | no binding (tested: 100 or 500 nM PD-L1) | Lam (PD-1 binding monoclonal antibody with the CDR sequences of pembrolizumab) (antibody, human IgG4 S228P, kappa, V domains shown) VH: QVQLVQSGVEVKKPGASVKVSCKASGYTFTNYYMYWVRQAPGQGLEWMGGINPSNGGTNFNEKFKNRVTLTTDSSTTTAYMELKSLQFDDTAVYYCARRDYRFDMGFDYWGQGTTVTVSS VL: EIVLTQSPATLSLSPGERATLSCRASKGVSTSGYSYLHWYQQKPGQAPRLLIYLASYLESGVPARFSGSGSGTDFTLTISSLEPEDFAVYYCQHSRDLPLTFGGGTKVEIKR
